Reference: the DeepSol protein solubility set

Test: soluble on expression in E. coli; label from the status in PepcDB or PDB records

Row | Sequence | soluble on expression in E. coli
1 | MSLQENISVTDSYSTGNAAQAMLEKLLQIYDVKMLVAQLNGVGENHWSAAILKRALANDSAWHRLSEKEFAHLQTLLPKPPEHHPHYAFRFIDLFAGIGGIRRGFESIGGQCVFTSEWNKHAVRTYKANHYCDPATHHFNEDIRDITLSHQEGVSDEAAAEHIRQHIPEHDVLLAGFPCQPFSLAGVSKKNSLGRAHGFACDTQGTLFFDVVRIIDARRPAMFVLENVKNLKSHDKGKTFRIIMQTLDELGYDVADAEDNGPDDPKIIDGKHFLPQHRERIVLVGFRRDLNLKADFTLRDISECFPAQRVTLAQLLDPMVEAKYILTPVLWKYLYRYAKKHQARGNGFGYGMVYPNNPQSVTRTLSARYYKDGAEILIDRGWDMATGEKDFDDPLNQQHRPRRLTPRECARLMGFEAPGEAKFRIPVSDTQAYRQFGNSVVVPVFAAVAKLLEPKIKQAVALRQQEAQHGRRSREGHHHHHH | soluble
2 | MSLQESLQDRLAQVVELLHRHKVVEDLTHRQEGQHHDRVENLVHRQNLVELQRKLEELHPADIAHILESLPLDDRLTVWQLVKSEDDGDILLEVSDAVRETLIADMDDHEIIAATKDLDADELADLAPELPRDVVHELMESLDAQQRERVRSALSYEEDQVGALMDFEMVTIREDVSLEVVLRYLRRLKELPGHTDKLFVVDYDGVLKGVLPIKRLLVNDPDKQVLEVMATDPVTFHPDEDGYDAAQAFERYDLISAPVVDKGGKLIGRLTIDEMVDLIREESESEVLNMAGLREEEDIFASVWEGHHHHHH | soluble
3 | MSLQFDARNMALLESLVVANVYLAPEKLQEELGISKRTLQYDVEKINKELDNIGLDGIQSVRGQGYYLLEDEKSTIKEILGNREASHKVFSASERRIRILFFLLVTDARVIIDTINECNEVSRNTSLQDIKQLKLALKQFNLELAYDRKNGNMVLGDERSIRQFFIHYCMNNEEIATADQLLDLMKINPMIKNQELFPKLDTIFEILAVTEKKIGIRYTDEVLERIGIMIFFFKERMKRNCYLNEQEEHEVESFEIAQEIYQQLQQSENFKINHAEITYLGKLLLGASRLNDDAAAEGKLDLIVEKIIAEFERLACVNFEDHRNLKKDLLLHLQPAYYRLKFQIEWINPLRTDIKQSYSDVYEITKKSLEPLEDLLGETIPEDEIAYVTILFGGYLSRKNNEGHHHHHH | soluble
4 | MSLQGQIDIPLDIVGRWQADQSAYELAKTYYWAKVAHLAEHNDQLAQPTYEGAHLADISEINNAPATARRMLVVSSDLFRAQQTAHAFADLMGLDVELDPRLRERSFGEWEGMTREEICEHYADDYHSWRAHTGGETKHGVESRIHTGRRGAEAVRDIVAKHHDETMPTTLLLVGHGSWIVATVAVLLDMDPDDLNNVGAMRNAFWTRMTPHTDPRNADRPTWKLEEFNQGPAIASFADWENGPESLRAPGMPLWKPIIQEGHHHHHH | not soluble
5 | MSLQKMKSSRKFLEGEPNIVIRKGELQYKVMKKNKIDINQLQSLLRQAGSFSIQEVEYAILETNGMVSVLPKSDFDKPTNKDLQIPSKSVSLPITLIIDGEIVRDNLKEAGVDEQWLKQELKKKNIDKTEDVLFAEWHKNKPLYTVTYEQSKGHHHHHH | soluble
6 | MSLQLLLVDDEEDANEELAELLEGEGFCCFTASSVKMALHQLTAHPDIALVITDLRMPEESGIQLIRHLREHTSRQHLPVIVTSGHADMDDVSDLLRLHVLDLFRKPIYHVRLLETLNNLFPEPKIFQEGHHHHHH | soluble
7 | MSLQNVESELKDIRLPYKTKSLCPECLKILEAEVYEENGKVMIRKVCEEHGEFVDVYWGDAEMFKKAARFAADGHGISTPITQNTTCPFSCGLCNNHKSHTALLNIVLTNRCDLACWYCFFYARRAGYVYEPTIEQIREMVRKAKNMKPIGCNAVQLTGGEPTLRDDLIDIIRMIKEEGYDHIQLNTNGIRLAEDPDFALRVRVAGVNTVYLSFDGVDEKTNPKNHHEIPKILENCRRAQLGLVLVPTVIKGVNDHQLGDIIRFAAENIDIVRGVNFQPVSLVGSMPRKEREQFRITIPDCIKAIEEQTNGEIGREDFYPVPSVVPISRFVEALTGQPQYELTTHFACGMATYIFKDNGRLIPITRFVDVEGLFEFLNEKAEEIAKSRMKTIRAIKDIIDLRKFVDTSKAPKGFNIAKILYEVLIKHDYSTLGEFHVKSLFIGMMHFQDLYNYDIARVERCEIHYGSPDGRIIPFCTFNVIPERYRDAIHEKYGIPIEEWEKRTGRKLKDDIKRAVRRPEGHHHHHH | soluble
8 | MSLQPVAKTEQPEGGILYDFGKETFGFITLKNLSGKGKIDLYYGESPEEAKDKAYCETLDKLLLEPGQITDLAIRSTSPLHHSDNEYTLENSKAFRYVYITHEPEVQIGEVSMQYEYLPEEYRGNFRCNDEELNCIWEVGAYTMHLTTREFFIDGIKRDRWVWSGDAIQSYLMNYYLFFDSESVKRTIWLLRGKDPVTSHSNTIMDYTFYWFLSVYDYYMYSGDRHFVNQLYPRMQTMMDYVLGRTNKNGMVEGMSGDWVFVDWADGYLDKKGELSFEQVLFCRSLETMALCADLVGDKDGQQKYEKLASALKAKLEPTFWNNQKQAFVHNCVDGRQSDAVTRYANMFSVFFDYLNADKQQAIKQSVLLNDEILKITTPYMRFYELEALCALGEQETVMKEMKAYWGGMLKAGATSFWEKYNPEESGTQHLAMYGRPYGKSLCHAWGASPIYLLGKYYLGVKPTKEGYKEFAVSPVLGGLKWMEGTVPTPNGDIHVYMDNKTIKVKATEGKGYLTIQSRRQPKANMGTVEKVSEGVWRLWIDSPEERIVTYRLEGHHHHHH | soluble
9 | MSLQRSYCYQLTRRFCQSHEHTKLAKWLNINSKLNPFRPDPPVGGSPFLHGVGDEDKPVYIPQDVRVGHTFVVGTTRVGKTRLASILINQDIRNGDAVIVVDPKGDQDLVRDMVAACKVSGRTEDFKIVHLGFPEQSAQYNPLKKFDQISEVATRITDAISAEGEGKQFAAFAWKYVNIVAICLEEMNQPITYQTIAFYISRLEQLLMSYADNILPNHYLNYHQEIDDIIEEHDSKIGKNNKTKSPMERHQAVIQYIKDHINKTIKSNNAEALHDQILIDLYDAAIMDKHYYDKITASVGPVLSEINKSNASKILSSKAQPGDIELMDVIKNKKVLYIGLDSLTNPNIAQAVGKAFLSDLVSTAGKIYKEEGHHHHHH | soluble
10 | MSLQTYSSSKRFNINVSQTIGRRIYMEDMVMIKGELFDGIDYIGVFDGHNGKDAAKKAMETFHKLLDEYLIKSDHYLEHLNHICNEIQQLISFTTASGTTASVIIIREDDVIFCYIGDSPIYIKSNEQVKKISIDHNTSNEEEVKRIINCGGSVVDINGTKRVNSKIVLTRSLGDKSLHPPLTNEPTIISIPLNEIDSIIVASDGISSISCELLNELTNPTFGLEQQAVNIRNIAYEKNSPDNISVVVIQITQPIISEGHHHHHH | soluble
11 | MSLQVSKFKNLPKIELHLHLDCSLSYDVVKKIDPTVDIKHYKSSFQAGESCSSLKDYLKCADNAIELMQTKENLQFIVEDLFKQLHDDNVIYAEIRFAPLLHCEGDLNAKKVVDIICMSALIQSKKYNIDYGLILCTLRHYSEDESLKTVKLVKEFSEKGVVGFDIAADEAGYPIDNHIKAFTYAKNNNLNITAHAGEAKGSESIWETINKLYAKRIGHGVRCLEDKKLVKFLSDNNYHLEICLTSNIKTNTFDLFTDHPINEIYDSSISLSLNTDGRAISNTSLSKEYAIAHSELNWSMKKIIQSNLNAIEHAFTTNEKKEKLRKHLKSFSEGHHHHHH | soluble
12 | MSLQVSQYLYQNAQSIWGDCISHPFVQGIGRGTLERDKFRFYIIQDYLFLLEYAKVFALGVVKACDEAVMREFSNAIQDILNNEMSIHNHYIRELQITQKELQNACPTLANKSYTSYMLAEGFKGSIKEVAVAVLACGWSYLVIAQNLSQIPNALEDAFYGHWIKGYSSKEFQACVTWNINLLDSLALASSKQEIEKLKEIFIATSEYEYQFWDMAYQSEGGSHHHHHH | soluble
13 | MSLQYESHSQLIIKSSDGGSSFDPSSLLMAAGVSGASGGTESQLVEAYIQSADMIKYLDETIGLREHYMSDKADMFSGLSSSHKQEDFYKFYLDHIEVSVDSASSVISLRTRAFDAEYAKIINQAIVDKAEEFINNINNDLAKSKLTFAKGEHEIVEQKLQQAKTEILSFQSKYNVLDPSAEGAAFQQIAFSLQATLAQKKAELSTMSTMMSNVAPEVINIKREIAALQKEVEKQKERISTAEGESEALSVSELMAQYSNLQVQLQLAIQAYSSSLITLENARVEAYQKLQHLVTVESPTLPDDNAYPTEGHHHHHH | soluble
